Measurements published in the supplement of paper PMC10567573.

B1: RAB22A (parent)
chain: FVEDSFDPNINPTIGASFMTKTVQ

Variants of: B1
Assay: protein stability index of a GFP-peptide fusion (GPS, HEK-293T) (PSI 1-6); higher = more stable
Conditions: c terminus: a fixed tail appended
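Note: lentivirally expressed fusions sorted by FACS into six bins by GFP to DsRed ratio, PSI derived from sequencing read proportions per bin multiplied by bin number.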

Variant	protein stability index
FVEDSFDPNINPTIGRSFMTKTVQ [A16R]	2.26
FVEDSFDPNINPTIGPSFMTKTVQ [A16P]	2.54
FVEDSFDPNINPTIGHSFMTKTVQ [A16H]	2.11
FVEDSFDPNINPTIGESFMTKTVQ [A16E]	3.38
FVEDSFDPNINPTIGMSFMTKTVQ [A16M]	1.75
FVEDSFDPNINPTIGVSFMTKTVQ [A16V]	1.81
FVEDSFDPNINPTIGNSFMTKTVQ [A16N]	2.74
FVEDSFDPNINPTIGSSFMTKTVQ [A16S]	2.86
FVEDSFDPNINPTIGFSFMTKTVQ [A16F]	2.07
FVEDSFDPNINPTIGQSFMTKTVQ [A16Q]	2.61
FVEDSFDPNINPTIGGSFMTKTVQ [A16G]	2.56
FVEDSFDPNINPTIGDSFMTKTVQ [A16D]	2.55
FVEDSFDPNINPTIGTSFMTKTVQ [A16T]	2.26
FVEDSFDPNINPTIGISFMTKTVQ [A16I]	2.11
FVEDSFDPNINPTIGCSFMTKTVQ [A16C]	1.8
FVEDSFDPNINPTIGKSFMTKTVQ [A16K]	1.97
FVEDSFDPNINPTIGWSFMTKTVQ [A16W]	2.15
FVEDSFDPNINPTIGLSFMTKTVQ [A16L]	1.81
FVEDSFDPNINPTIGYSFMTKTVQ [A16Y]	1.95
FVEDSFDPNINPTIRASFMTKTVQ [G15R]	1.92
FVEDSFDPNINPTIEASFMTKTVQ [G15E]	2.86
FVEDSFDPNINPTISASFMTKTVQ [G15S]	2.4
FVEDSFDPNINPTIFASFMTKTVQ [G15F]	2.33
FVEDSFDPNINPTINASFMTKTVQ [G15N]	2.41

Variant	protein stability index
FVEDSFDPNINPTIAASFMTKTVQ [G15A]	2.46
FVEDSFDPNINPTIQASFMTKTVQ [G15Q]	2.38
FVEDSFDPNINPTILASFMTKTVQ [G15L]	2.06
FVEDSFDPNINPTIYASFMTKTVQ [G15Y]	1.9
FVEDSFDPNINPTITASFMTKTVQ [G15T]	2.22
FVEDSFDPNINPTIMASFMTKTVQ [G15M]	2.06
FVEDSFDPNINPTIDASFMTKTVQ [G15D]	2.86
FVEDSFDPNINPTIIASFMTKTVQ [G15I]	1.66
FVEDSFDPNINPTIVASFMTKTVQ [G15V]	1.87
FVEDSFDPNINPTIPASFMTKTVQ [G15P]	2.42
FVEDSFDPNINPTIHASFMTKTVQ [G15H]	2.08
FVEDSFDPNINPTIWASFMTKTVQ [G15W]	1.85
FVEDSFDPNINPTICASFMTKTVQ [G15C]	2.03
FVEDSFDPNINPTIKASFMTKTVQ [G15K]	2.1
FVEDSFDPNINPTIGASIMTKTVQ [F18I]	3.32
FVEDSFDPNINPTIGASDMTKTVQ [F18D]	3.45
FVEDSFDPNINPTIGASMMTKTVQ [F18M]	2.65
FVEDSFDPNINPTIGASRMTKTVQ [F18R]	2.83
FVEDSFDPNINPTIGASEMTKTVQ [F18E]	3.37
FVEDSFDPNINPTIGASNMTKTVQ [F18N]	3.94
FVEDSFDPNINPTIGASAMTKTVQ [F18A]	3.22
FVEDSFDPNINPTIGASKMTKTVQ [F18K]	2.79
FVEDSFDPNINPTIGASVMTKTVQ [F18V]	3.07
FVEDSFDPNINPTIGASSMTKTVQ [F18S]	3.29

Variant	protein stability index
FVEDSFDPNINPTIGASQMTKTVQ [F18Q]	3.52
FVEDSFDPNINPTIGASTMTKTVQ [F18T]	3.15
FVEDSFDPNINPTIGASGMTKTVQ [F18G]	3.35
FVEDSFDPNINPTIGASLMTKTVQ [F18L]	2.56
FVEDSFDPNINPTIGASHMTKTVQ [F18H]	3.24
FVEDSFDPNINPTIGASWMTKTVQ [F18W]	2.08
FVEDSFDPNINPTIGASCMTKTVQ [F18C]	3.17
FVEDSFDPNINPTIGASPMTKTVQ [F18P]	2.98
FVEDSFDPNINPTIGASYMTKTVQ [F18Y]	3.08
FVEDSFDPNINPTLGASFMTKTVQ [I14L]	2.14
FVEDSFDPNINPTFGASFMTKTVQ [I14F]	2.05
FVEDSFDPNINPTNGASFMTKTVQ [I14N]	2.81
FVEDSFDPNINPTWGASFMTKTVQ [I14W]	2.43
FVEDSFDPNINPTCGASFMTKTVQ [I14C]	2.01
FVEDSFDPNINPTPGASFMTKTVQ [I14P]	3.07
FVEDSFDPNINPTAGASFMTKTVQ [I14A]	2.07
FVEDSFDPNINPTKGASFMTKTVQ [I14K]	2.29
FVEDSFDPNINPTTGASFMTKTVQ [I14T]	2.78
FVEDSFDPNINPTSGASFMTKTVQ [I14S]	2.46
FVEDSFDPNINPTEGASFMTKTVQ [I14E]	3.21
FVEDSFDPNINPTGGASFMTKTVQ [I14G]	2.59
FVEDSFDPNINPTHGASFMTKTVQ [I14H]	2.87
FVEDSFDPNINPTDGASFMTKTVQ [I14D]	3.19
FVEDSFDPNINPTQGASFMTKTVQ [I14Q]	2.78

Variant	protein stability index
FVEDSFDPNINPTYGASFMTKTVQ [I14Y]	2.23
FVEDSFDPNINPTRGASFMTKTVQ [I14R]	2.14
FVEDSFDPNINPTVGASFMTKTVQ [I14V]	2.69
FVEDSFDPNINPTMGASFMTKTVQ [I14M]	2.55
FVEDSFDPNINPTIGASFETKTVQ [M19E]	3.36
FVEDSFDPNINPTIGASFVTKTVQ [M19V]	2.29
FVEDSFDPNINPTIGASFDTKTVQ [M19D]	3.24
FVEDSFDPNINPTIGASFYTKTVQ [M19Y]	2.08
FVEDSFDPNINPTIGASFITKTVQ [M19I]	2.25
FVEDSFDPNINPTIGASFTTKTVQ [M19T]	2.81
FVEDSFDPNINPTIGASFSTKTVQ [M19S]	2.64
FVEDSFDPNINPTIGASFPTKTVQ [M19P]	2.62
FVEDSFDPNINPTIGASFKTKTVQ [M19K]	2.1
FVEDSFDPNINPTIGASFQTKTVQ [M19Q]	2.38
FVEDSFDPNINPTIGASFHTKTVQ [M19H]	2.12
FVEDSFDPNINPTIGASFNTKTVQ [M19N]	2.99
FVEDSFDPNINPTIGASFATKTVQ [M19A]	3.11
FVEDSFDPNINPTIGASFLTKTVQ [M19L]	2.22
FVEDSFDPNINPTIGASFFTKTVQ [M19F]	1.73
FVEDSFDPNINPTIGASFGTKTVQ [M19G]	2.4
FVEDSFDPNINPTIGASFWTKTVQ [M19W]	3.23
FVEDSFDPNINPTIGASFRTKTVQ [M19R]	2.46
